Results as given in patent publication US20260001928A1 (CORTERIA PHARMACEUTICALS, priority 2022, published 2026).
Each block holds one binder with its values, some of them ahead of it. *1 amine or outer side, *2 acyl side, *3 side chain or, on linkers, in order; H or OH if unused. Primed or numbered codes have the meaning given here. Side-chain parts run from the residue outwards. [ ]: non-standard residue; d: D form. The star is where a group is joined. Thp′ = 4-amino-tetrahydro-2H-pyran-4-yl-acetic acid, O=C(CC1(N[*:1])CCOCC1)[*:2]; C18 diacid = O=C(O)CCCCCCCCCCCCCCCCC(=O)*; C16 diacid = O=C(O)CCCCCCCCCCCCCCC(=O)*; γGlu = O=C(O)[C@H](CCC(=O)[*:2])N[*:1]; Isovaleryl = CC(C)CC(=O)*; Api = NC1(C(=O)O)CCNCC1; Pentanoyl = CCCCC(=O)*; AEEA = NCCOCCOCC(=O)O; Aib = CC(C)(N)C(=O)O

Assays:
CRF1R receptor = target: T1, CRF1R receptor (UniProt P34998 24-415, limits assumed); test: cell-based or functional assay
T1 sequence (looked up): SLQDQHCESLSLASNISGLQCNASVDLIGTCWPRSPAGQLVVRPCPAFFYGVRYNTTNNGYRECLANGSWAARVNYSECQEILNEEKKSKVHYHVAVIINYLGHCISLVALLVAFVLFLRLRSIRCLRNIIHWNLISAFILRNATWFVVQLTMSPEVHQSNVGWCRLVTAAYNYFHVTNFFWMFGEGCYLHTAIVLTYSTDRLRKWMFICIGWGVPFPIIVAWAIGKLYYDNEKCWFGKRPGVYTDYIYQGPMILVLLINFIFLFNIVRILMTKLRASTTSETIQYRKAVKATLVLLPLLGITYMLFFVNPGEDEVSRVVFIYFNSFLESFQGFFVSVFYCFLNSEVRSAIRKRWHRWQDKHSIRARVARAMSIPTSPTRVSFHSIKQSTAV

[1] = target: human corticotropin-releasing factor 2a (CRF2a receptor) (human), Q13324; test: cell-based or functional assay
Sequence of human corticotropin-releasing factor 2a (CRF2a receptor) (human), Q13324 (Q13324 20-411): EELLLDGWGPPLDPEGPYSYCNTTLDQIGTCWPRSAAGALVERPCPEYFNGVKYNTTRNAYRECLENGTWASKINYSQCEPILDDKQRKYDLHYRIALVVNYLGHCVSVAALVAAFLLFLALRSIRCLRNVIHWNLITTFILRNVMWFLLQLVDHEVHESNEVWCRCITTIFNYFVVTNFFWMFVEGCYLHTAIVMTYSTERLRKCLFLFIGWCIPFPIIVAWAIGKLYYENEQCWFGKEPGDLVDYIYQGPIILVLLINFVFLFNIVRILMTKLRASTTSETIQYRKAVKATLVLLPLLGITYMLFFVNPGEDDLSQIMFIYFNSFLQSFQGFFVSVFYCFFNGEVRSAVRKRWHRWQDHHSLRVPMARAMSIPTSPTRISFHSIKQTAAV

EC50 (CRF1R receptor): > 250 nM
Emax (% I) (CRF1R receptor): 8%
EC50 [nM] (cAMP) [1]: 1.7 nM
Binder: Ac-IVLSLD[dV]PIKLK([AEEA-AEEA-γGlu-C18 diacid])KILLEQEKQKKQREQAETN[Thp′]QILAQV-NH2 [SEQ ID NO 198]

Emax (% I) (CRF1R receptor): 10%
EC50 [nM] (cAMP) [1]: 0.44 nM
B1: SEQ ID NO 194 (peptide)
peptide: Pentanoyl-VLSLD[dV]PIKLK([γGlu-C18 diacid])KILLEQEKQK[Aib]QREQAETN[Aib]QILAQV-NH2
SMILES: CCCCC(=O)N[C@H](C(=O)N[C@@H](CC(C)C)C(=O)N[C@@H](CO)C(=O)N[C@@H](CC(C)C)C(=O)N[C@@H](CC(=O)O)C(=O)N[C@@H](C(=O)N1CCC[C@H]1C(=O)N[C@H](C(=O)N[C@@H](CCCCN)C(=O)N[C@@H](CC(C)C)C(=O)N[C@@H](CCCCNC(=O)CC[C@H](NC(=O)CCCCCCCCCCCCCCCCC(=O)O)C(=O)O)C(=O)N[C@@H](CCCCN)C(=O)N[C@H](C(=O)N[C@@H](CC(C)C)C(=O)N[C@@H](CC(C)C)C(=O)N[C@@H](CCC(=O)O)C(=O)N[C@@H](CCC(N)=O)C(=O)N[C@@H](CCC(=O)O)C(=O)N[C@@H](CCCCN)C(=O)N[C@@H](CCC(N)=O)C(=O)N[C@@H](CCCCN)C(=O)NC(C)(C)C(=O)N[C@@H](CCC(N)=O)C(=O)N[C@@H](CCCNC(=N)N)C(=O)N[C@@H](CCC(=O)O)C(=O)N[C@@H](CCC(N)=O)C(=O)N[C@@H](C)C(=O)N[C@@H](CCC(=O)O)C(=O)N[C@H](C(=O)N[C@@H](CC(N)=O)C(=O)NC(C)(C)C(=O)N[C@@H](CCC(N)=O)C(=O)N[C@H](C(=O)N[C@@H](CC(C)C)C(=O)N[C@@H](C)C(=O)N[C@@H](CCC(N)=O)C(=O)N[C@H](C(N)=O)C(C)C)[C@@H](C)CC)[C@@H](C)O)[C@@H](C)CC)[C@@H](C)CC)C(C)C)C(C)C

Emax (% I) (CRF1R receptor): 5%
EC50 [nM] (cAMP) [1]: 1.28 nM
B3: SEQ ID NO 197 (peptide)
peptide: Ac-IVLSLD[dV]PIKLK([AEEA-AEEA-γGlu-C18 diacid])KILLEQEKQK[Aib]QREQAETN[Aib]QILAQV-NH2
SMILES: CC[C@H](C)[C@H](NC(C)=O)C(=O)N[C@H](C(=O)N[C@@H](CC(C)C)C(=O)N[C@@H](CO)C(=O)N[C@@H](CC(C)C)C(=O)N[C@@H](CC(=O)O)C(=O)N[C@@H](C(=O)N1CCC[C@H]1C(=O)N[C@H](C(=O)N[C@@H](CCCCN)C(=O)N[C@@H](CC(C)C)C(=O)N[C@@H](CCCCNC(=O)COCCOCCNC(=O)COCCOCCNC(=O)CC[C@H](NC(=O)CCCCCCCCCCCCCCCCC(=O)O)C(=O)O)C(=O)N[C@@H](CCCCN)C(=O)N[C@H](C(=O)N[C@@H](CC(C)C)C(=O)N[C@@H](CC(C)C)C(=O)N[C@@H](CCC(=O)O)C(=O)N[C@@H](CCC(N)=O)C(=O)N[C@@H](CCC(=O)O)C(=O)N[C@@H](CCCCN)C(=O)N[C@@H](CCC(N)=O)C(=O)N[C@@H](CCCCN)C(=O)NC(C)(C)C(=O)N[C@@H](CCC(N)=O)C(=O)N[C@@H](CCCNC(=N)N)C(=O)N[C@@H](CCC(=O)O)C(=O)N[C@@H](CCC(N)=O)C(=O)N[C@@H](C)C(=O)N[C@@H](CCC(=O)O)C(=O)N[C@H](C(=O)N[C@@H](CC(N)=O)C(=O)NC(C)(C)C(=O)N[C@@H](CCC(N)=O)C(=O)N[C@H](C(=O)N[C@@H](CC(C)C)C(=O)N[C@@H](C)C(=O)N[C@@H](CCC(N)=O)C(=O)N[C@H](C(N)=O)C(C)C)[C@@H](C)CC)[C@@H](C)O)[C@@H](C)CC)[C@@H](C)CC)C(C)C)C(C)C

More lines, now with the values behind:

B2: SEQ ID NO 195 (peptide)
peptide: Pentanoyl-VLSLD[dV]PIGLK([γGlu-C18 diacid])KILLEQEKQKKQREQAETN[Aib]QILAQV-NH2
SMILES: CCCCC(=O)N[C@H](C(=O)N[C@@H](CC(C)C)C(=O)N[C@@H](CO)C(=O)N[C@@H](CC(C)C)C(=O)N[C@@H](CC(=O)O)C(=O)N[C@@H](C(=O)N1CCC[C@H]1C(=O)N[C@H](C(=O)NCC(=O)N[C@@H](CC(C)C)C(=O)N[C@@H](CCCCNC(=O)CC[C@H](NC(=O)CCCCCCCCCCCCCCCCC(=O)O)C(=O)O)C(=O)N[C@@H](CCCCN)C(=O)N[C@H](C(=O)N[C@@H](CC(C)C)C(=O)N[C@@H](CC(C)C)C(=O)N[C@@H](CCC(=O)O)C(=O)N[C@@H](CCC(N)=O)C(=O)N[C@@H](CCC(=O)O)C(=O)N[C@@H](CCCCN)C(=O)N[C@@H](CCC(N)=O)C(=O)N[C@@H](CCCCN)C(=O)N[C@@H](CCCCN)C(=O)N[C@@H](CCC(N)=O)C(=O)N[C@@H](CCCNC(=N)N)C(=O)N[C@@H](CCC(=O)O)C(=O)N[C@@H](CCC(N)=O)C(=O)N[C@@H](C)C(=O)N[C@@H](CCC(=O)O)C(=O)N[C@H](C(=O)N[C@@H](CC(N)=O)C(=O)NC(C)(C)C(=O)N[C@@H](CCC(N)=O)C(=O)N[C@H](C(=O)N[C@@H](CC(C)C)C(=O)N[C@@H](C)C(=O)N[C@@H](CCC(N)=O)C(=O)N[C@H](C(N)=O)C(C)C)[C@@H](C)CC)[C@@H](C)O)[C@@H](C)CC)[C@@H](C)CC)C(C)C)C(C)C
EC50 (CRF1R receptor): 180 nM
Emax (% I) (CRF1R receptor): 42%
EC50 [nM] (cAMP) [1]: 0.21 nM

B4: SEQ ID NO 196 (peptide)
peptide: Ac-IVLSLD[dV]PIKLK([AEEA-AEEA-γGlu-C18 diacid])KILLEQEKQK[Aib]QREQAETN[Api]QILAQV-NH2
SMILES: CC[C@H](C)[C@H](NC(C)=O)C(=O)N[C@H](C(=O)N[C@@H](CC(C)C)C(=O)N[C@@H](CO)C(=O)N[C@@H](CC(C)C)C(=O)N[C@@H](CC(=O)O)C(=O)N[C@@H](C(=O)N1CCC[C@H]1C(=O)N[C@H](C(=O)N[C@@H](CCCCN)C(=O)N[C@@H](CC(C)C)C(=O)N[C@@H](CCCCNC(=O)COCCOCCNC(=O)COCCOCCNC(=O)CC[C@H](NC(=O)CCCCCCCCCCCCCCCCC(=O)O)C(=O)O)C(=O)N[C@@H](CCCCN)C(=O)N[C@H](C(=O)N[C@@H](CC(C)C)C(=O)N[C@@H](CC(C)C)C(=O)N[C@@H](CCC(=O)O)C(=O)N[C@@H](CCC(N)=O)C(=O)N[C@@H](CCC(=O)O)C(=O)N[C@@H](CCCCN)C(=O)N[C@@H](CCC(N)=O)C(=O)N[C@@H](CCCCN)C(=O)NC(C)(C)C(=O)N[C@@H](CCC(N)=O)C(=O)N[C@@H](CCCNC(=N)N)C(=O)N[C@@H](CCC(=O)O)C(=O)N[C@@H](CCC(N)=O)C(=O)N[C@@H](C)C(=O)N[C@@H](CCC(=O)O)C(=O)N[C@H](C(=O)N[C@@H](CC(N)=O)C(=O)NC1(C(=O)N[C@@H](CCC(N)=O)C(=O)N[C@H](C(=O)N[C@@H](CC(C)C)C(=O)N[C@@H](C)C(=O)N[C@@H](CCC(N)=O)C(=O)N[C@H](C(N)=O)C(C)C)[C@@H](C)CC)CCNCC1)[C@@H](C)O)[C@@H](C)CC)[C@@H](C)CC)C(C)C)C(C)C
Emax (% I) (CRF1R receptor): 9%
EC50 [nM] (cAMP) [1]: 2.2 nM

B5: SEQ ID NO 9 (peptide)
peptide: Isovaleryl-VLSLD[dV]PIKLK([γGlu-C16 diacid])QILLKQERQKKQREQAEKNKQILEQV-NH2
SMILES: CC[C@H](C)[C@H](NC(=O)[C@H](CCC(N)=O)NC(=O)[C@H](CCCCNC(=O)CC[C@H](NC(=O)CCCCCCCCCCCCCCC(=O)O)C(=O)O)NC(=O)[C@H](CC(C)C)NC(=O)[C@H](CCCCN)NC(=O)[C@@H](NC(=O)[C@@H]1CCCN1C(=O)[C@H](NC(=O)[C@H](CC(=O)O)NC(=O)[C@H](CC(C)C)NC(=O)[C@H](CO)NC(=O)[C@H](CC(C)C)NC(=O)[C@@H](NC(=O)CC(C)C)C(C)C)C(C)C)[C@@H](C)CC)C(=O)N[C@@H](CC(C)C)C(=O)N[C@@H](CC(C)C)C(=O)N[C@@H](CCCCN)C(=O)N[C@@H](CCC(N)=O)C(=O)N[C@@H](CCC(=O)O)C(=O)N[C@@H](CCCNC(=N)N)C(=O)N[C@@H](CCC(N)=O)C(=O)N[C@@H](CCCCN)C(=O)N[C@@H](CCCCN)C(=O)N[C@@H](CCC(N)=O)C(=O)N[C@@H](CCCNC(=N)N)C(=O)N[C@@H](CCC(=O)O)C(=O)N[C@@H](CCC(N)=O)C(=O)N[C@@H](C)C(=O)N[C@@H](CCC(=O)O)C(=O)N[C@@H](CCCCN)C(=O)N[C@@H](CC(N)=O)C(=O)N[C@@H](CCCCN)C(=O)N[C@@H](CCC(N)=O)C(=O)N[C@H](C(=O)N[C@@H](CC(C)C)C(=O)N[C@@H](CCC(=O)O)C(=O)N[C@@H](CCC(N)=O)C(=O)N[C@H](C(N)=O)C(C)C)[C@@H](C)CC
EC50 (CRF1R receptor): 28.2 nM
Emax (% I) (CRF1R receptor): 77%
EC50 [nM] (cAMP) [1]: 0.16 nM
